According to patent publication US6500417 (DSM N V, dated 2002):

B1: hIL-3 deletion mutant 812 (deletion 54-61) (ligand)
chain: APMTQTTPLKTSWVNCSNMIDEIITHLKQPPLPLLDFNNLNGEDQDILMENNLNRAVKSLQNASAIESILKNLLPCLPLATAAPTRHPIHIKDGDWNEFRRKLTFYLKTLENAQAQQTTLSLAIF
notes: not shown: heterologous N-terminal leader of the E. coli fusion (pGB/IL-336: 12 aa; pGB/IL-339: 15 aa)
B2: hIL-3 deletion mutant 811 (deletion 31-49) (ligand)
chain: APMTQTTPLKTSWVNCSNMIDEIITHLKQPENNLRRPNLEAFNRAVKSLQNASAIESILKNLLPCLPLATAAPTRHPIHIKDGDWNEFRRKLTFYLKTLENAQAQQTTLSLAIF
notes: expressed in Bacillus, lacks a leader
B3: hIL-3 combination deletion mutant X (deletions 1-14/120-133) (ligand)
chain: NCSNMIDEIITHLKQPPLPLLDFNNLNGEDQDILMENNLRRPNLEAFNRAVKSLQNASAIESILKNLLPCLPLATAAPTRHPIHIKDGDWNEFRRKLTFYLKTLE
notes: as for B2
B4: hIL-3 combination deletion mutant Z (deletions 1-14/116-133) (ligand)
chain: NCSNMIDEIITHLKQPPLPLLDFNNLNGEDQDILMENNLRRPNLEAFNRAVKSLQNASAIESILKNLLPCLPLATAAPTRHPIHIKDGDWNEFRRKLTFYL
notes: as for B2
B5: hIL-3 deletion mutant 933 (deletion 29-37) (ligand)
chain: APMTQTTPLKTSWVNCSNMIDEIITHLKNNLNGEDQDILMENNLRRPNLEAFNRAVKSLQNASAIESILKNLLPCLPLATAAPTRHPIHIKDGDWNEFRRKLTFYLKTLENAQAQQTTLSLAIF
notes: as for B2
B6: reference IL-3 preparation (B. licheniformis, full-length IL-3 cDNA in pGB/IL-322) (ligand)
chain: APMTQTTPLKTSWVNCSNMIDEIITHLKQPPLPLLDFNNLNGEDQDILMENNLRRPNLEAFNRAVKSLQNASAIESILKNLLPCLPLATAAPTRHPIHIKDGDWNEFRRKLTFYLKTLENAQAQQTTLSLAIF
modifications: radiolabeled with the Bolton-Hunter reagent when used as tracer
B7: hIL-3 double cysteine mutant 9045 (Cys16Cys84→Ala16Ala84) (ligand)
chain: APMTQTTPLKTSWVNASNMIDEIITHLKQPPLPLLDFNNLNGEDQDILMENNLRRPNLEAFNRAVKSLQNASAIESILKNLLPALPLATAAPTRHPIHIKDGDWNEFRRKLTFYLKTLENAQAQQTTLSLAIF
notes: also called 16/84C → A; not shown: heterologous N-terminal leader of the E. coli fusion (pGB/IL-336: 12 aa; pGB/IL-339: 15 aa)
B8: hIL-3 substitution mutant 905 (Cys84→Ala84) (ligand)
chain: APMTQTTPLKTSWVNCSNMIDEIITHLKQPPLPLLDFNNLNGEDQDILMENNLRRPNLEAFNRAVKSLQNASAIESILKNLLPALPLATAAPTRHPIHIKDGDWNEFRRKLTFYLKTLENAQAQQTTLSLAIF
notes: also called 84C → A; not shown: heterologous N-terminal leader of the E. coli fusion (pGB/IL-336: 12 aa; pGB/IL-339: 15 aa)
B9: hIL-3 substitution mutant 1484 (Arg54Arg55→Glu54Asp55) (ligand)
chain: APMTQTTPLKTSWVNCSNMIDEIITHLKQPPLPLLDFNNLNGEDQDILMENNLEDPNLEAFNRAVKSLQNASAIESILKNLLPCLPLATAAPTRHPIHIKDGDWNEFRRKLTFYLKTLENAQAQQTTLSLAIF
notes: also called 54RR → ED; not shown: heterologous N-terminal leader of the E. coli fusion (pGB/IL-336: 12 aa; pGB/IL-339: 15 aa)
B10: hIL-3 substitution mutant 1483 (Glu50→Lys50) (ligand)
chain: APMTQTTPLKTSWVNCSNMIDEIITHLKQPPLPLLDFNNLNGEDQDILMKNNLRRPNLEAFNRAVKSLQNASAIESILKNLLPCLPLATAAPTRHPIHIKDGDWNEFRRKLTFYLKTLENAQAQQTTLSLAIF
notes: also called 50E → K; not shown: heterologous N-terminal leader of the E. coli fusion (pGB/IL-336: 12 aa; pGB/IL-339: 15 aa)
B11: hIL-3 substitution mutant 1488 (Lys79→Glu79) (ligand)
chain: APMTQTTPLKTSWVNCSNMIDEIITHLKQPPLPLLDFNNLNGEDQDILMENNLRRPNLEAFNRAVKSLQNASAIESILENLLPCLPLATAAPTRHPIHIKDGDWNEFRRKLTFYLKTLENAQAQQTTLSLAIF
notes: also called 79K → E; not shown: heterologous N-terminal leader of the E. coli fusion (pGB/IL-336: 12 aa; pGB/IL-339: 15 aa)
B12: hIL-3 substitution mutant 904 (Cys16→Ala16) (ligand)
chain: APMTQTTPLKTSWVNASNMIDEIITHLKQPPLPLLDFNNLNGEDQDILMENNLRRPNLEAFNRAVKSLQNASAIESILKNLLPCLPLATAAPTRHPIHIKDGDWNEFRRKLTFYLKTLENAQAQQTTLSLAIF
notes: also called 16C → A; not shown: heterologous N-terminal leader of the E. coli fusion (pGB/IL-336: 12 aa; pGB/IL-339: 15 aa)
B13: hIL-3 substitution mutant 1492 (Arg108Arg109Lys110→Glu108Asp109Glu110) (ligand)
chain: APMTQTTPLKTSWVNCSNMIDEIITHLKQPPLPLLDFNNLNGEDQDILMENNLRRPNLEAFNRAVKSLQNASAIESILKNLLPCLPLATAAPTRHPIHIKDGDWNEFEDELTFYLKTLENAQAQQTTLSLAIF
notes: also called 108RRK → EDE; not shown: heterologous N-terminal leader of the E. coli fusion (pGB/IL-336: 12 aa; pGB/IL-339: 15 aa)
B14: hIL-3 substitution mutant 1486 (Arg63Ala64→Pro63Gly64) (ligand)
chain: APMTQTTPLKTSWVNCSNMIDEIITHLKQPPLPLLDFNNLNGEDQDILMENNLRRPNLEAFNPGVKSLQNASAIESILKNLLPCLPLATAAPTRHPIHIKDGDWNEFRRKLTFYLKTLENAQAQQTTLSLAIF
notes: also called 63RA → PG; not shown: heterologous N-terminal leader of the E. coli fusion (pGB/IL-336: 12 aa; pGB/IL-339: 15 aa)
B15: pGB/IL-336 IL-3 fusion protein (ligand)
chain: MTMITNSRGSVDAPMTQTTPLKTSWVNCSNMIDEIITHLKQPPLPLLDFNNLNGEDQDILMENNLRRPNLEAFNRAVKSLQNASAIESILKNLLPCLPLATAAPTRHPIHIKDGDWNEFRRKLTFYLKTLENAQAQQTTLSLAIF
B16: hIL-3 deletion mutant 822 (deletion 107-119) (ligand)
chain: APMTQTTPLKTSWVNCSNMIDEIITHLKQPPLPLLDFNNLNGEDQDILMENNLRRPNLEAFNRAVKSLQNASAIESILKNLLPCLPLATAAPTRHPIHIKDGDWNENAQAQQTTLSLAIF
notes: as for B1
B17: hIL-3 deletion mutant 810 (deletion 20-30) (ligand)
chain: APMTQTTPLKTSWVNCSNMPLPLLDFNNLNGEDQDILMENNLRRPNLEAFNRAVKSLQNASAIESILKNLLPCLPLATAAPTRHPIHIKDGDWNEFRRKLTFYLKTLENAQAQQTTLSLAIF
notes: also called 4810; not shown: heterologous N-terminal leader of the E. coli fusion (pGB/IL-336: 12 aa; pGB/IL-339: 15 aa)

Legend:
IL-3 receptor [1] = biological target: T1, IL-3 receptor (human, UniProt P26951 19-378; P32927 17-897); assay: competition with radiolabeled hIL-3 for binding to cells, relative to reference IL-3
T1 construct: whole, on cells; also called ILK3 receptor
Method: An ILK3 receptor binding assay was performed with purified recombinant hIL-3 (see EPA 0390252) was radiolabeled with the Bolton-Hunter reagent (as described by Budel et al., Blood 74 (1989) 565–571). The specific activity was estimated at 80,000 cpm/ng of IL-3. As target, either donor leukocytes, patient AML cells, or MV4-11 (ATCC: CRL-9591) cells were used. Cells were washed in Hanks Balanced Salt solution and suspended in Alpha-MEM plus 1% BSA. Usually, 3–10×10⁶ cells were incubated with 200–300 pM of radiolabeled IL-3 and various concentrations of unlabeled mutant protein in a total volume of 200 µl for 1 hr at 37° C. Cell-bound labeled IL-3 was centrifuged for 10 min at 1000×g at 4° C. through a 0.5 ml cushion of bovine calf serum in an Eppendorf tube (Budel et al., 1989). The tubes were frozen in liquid nitrogen and the tips cut off for counting in a Packard gamma counter. Competition binding was determined relative to the reference preparation. […] Radiolabeled IL-3 binding to patient AML blasts is competed with unlabeled IL-3 protein (reference preparation). Due to the low number of receptors (less than 200) on the target cells, data for competition mostly varied by one order of magnitude.

IL-3 receptor [2] = biological target: T1, IL-3 receptor; assay: cell-based or functional assay

T1 sequence (P26951 19-378, chain 1 of 2): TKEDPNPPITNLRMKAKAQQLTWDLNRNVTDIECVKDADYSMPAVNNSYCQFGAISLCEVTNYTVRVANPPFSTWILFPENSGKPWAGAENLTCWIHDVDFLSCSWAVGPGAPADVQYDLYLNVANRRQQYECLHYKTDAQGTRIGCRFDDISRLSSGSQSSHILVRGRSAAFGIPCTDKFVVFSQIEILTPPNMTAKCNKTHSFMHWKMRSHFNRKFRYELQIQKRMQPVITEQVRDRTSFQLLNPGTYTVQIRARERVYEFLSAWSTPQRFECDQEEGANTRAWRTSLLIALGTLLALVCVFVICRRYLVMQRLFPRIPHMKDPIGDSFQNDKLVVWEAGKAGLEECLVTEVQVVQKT
T1 sequence (P32927 17-897, chain 2 of 2): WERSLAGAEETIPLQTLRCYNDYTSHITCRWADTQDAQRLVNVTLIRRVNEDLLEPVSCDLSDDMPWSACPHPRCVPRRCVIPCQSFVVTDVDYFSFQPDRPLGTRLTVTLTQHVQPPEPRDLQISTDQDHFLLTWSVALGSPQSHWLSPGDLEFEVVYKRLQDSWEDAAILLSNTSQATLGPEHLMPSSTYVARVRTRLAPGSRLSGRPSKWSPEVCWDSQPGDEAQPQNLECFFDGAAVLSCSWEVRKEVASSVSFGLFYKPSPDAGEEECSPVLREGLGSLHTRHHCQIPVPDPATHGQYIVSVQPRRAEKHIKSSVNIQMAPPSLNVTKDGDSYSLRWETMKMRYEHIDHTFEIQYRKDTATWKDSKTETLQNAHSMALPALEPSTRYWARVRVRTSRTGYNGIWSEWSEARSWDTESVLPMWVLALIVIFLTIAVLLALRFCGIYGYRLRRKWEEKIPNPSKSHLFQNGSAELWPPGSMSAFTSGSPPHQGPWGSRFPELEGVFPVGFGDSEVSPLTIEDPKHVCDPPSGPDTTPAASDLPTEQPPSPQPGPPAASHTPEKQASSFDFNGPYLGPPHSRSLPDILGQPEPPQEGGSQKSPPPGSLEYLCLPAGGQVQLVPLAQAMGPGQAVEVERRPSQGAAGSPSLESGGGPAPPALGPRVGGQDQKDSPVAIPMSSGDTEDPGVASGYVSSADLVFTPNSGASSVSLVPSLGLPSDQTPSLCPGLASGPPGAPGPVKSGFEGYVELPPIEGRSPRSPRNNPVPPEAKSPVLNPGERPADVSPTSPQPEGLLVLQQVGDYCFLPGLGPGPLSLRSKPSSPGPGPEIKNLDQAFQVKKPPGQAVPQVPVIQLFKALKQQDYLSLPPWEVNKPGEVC

| Binder | relative antagonistic potential (relative receptor binding activity / relative biological activity) (IL-3 receptor [1]) | REL. SPEC. BIOLOGICAL ACTIVITY (DNA synthesis of AML193 cells) (IL-3 receptor [2]) |
| --- | --- | --- |
| B1 | 1.2 | 5.3e-05 relative to reference IL-3 |
| B2 | 1.6 | 0.0048 relative to reference IL-3 |
| B3 | 8.9 | 0.23 relative to reference IL-3 |
| B4 | 1.6 | 0.11 relative to reference IL-3 |
| B5 | 1.1 | 0.0057 relative to reference IL-3 |
| B6 |  | 1 relative to reference IL-3 |
| B7 | 88 | 0.00031 relative to reference IL-3 |
| B8 | 11 | 0.00019 relative to reference IL-3 |
| B9 | 3.5 | 8e-05 relative to reference IL-3 |
| B10 | 37 | 0.0027 relative to reference IL-3 |
| B11 | 65 | 0.0019 relative to reference IL-3 |
| B12 | 100 | 0.00024 relative to reference IL-3 |
| B13 | 2 | 3.1e-05 relative to reference IL-3 |
| B14 | 14 | 9.8e-05 relative to reference IL-3 |
| B15 | 1.1 | 0.79 relative to reference IL-3 |
| B16 | 1.9 | 0.00021 relative to reference IL-3 |
| B17 | 2.4 | 0.0021 relative to reference IL-3 |
